According to the nanobody polyreactivity screen of Harvey et al. (2022):

Assay: yeast display, Sf9 membrane polyspecificity reagent, FACS + sequencing; frameworks hold sequencing errors
Outline: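 Using colony PCR, genes from sorted yeast display clones were amplified, then sequenced on MiSeq at 2 × 250 and filtered by CDR length. The clones had been stained with 10% biotinylated, detergent-solubilized Sf9 membrane reagent for 1 hour at 4 °C and sorted by FACS into low and high (top ~1%) gates on anti-HA and streptavidin fluorescence. Polyreactivity labels come from the gate of origin.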

Sequence | polyreactivity (PSR sort gate)
QVQLVESGGGLVQAGGSLRLSCAASGRIFRSYAMGWYRQAPGKERELVAAISQRGGSTYYADSVKGRFTISRDNAKNTVYLQMNSLKPEDTAVYYCNKERRNSGKFDYWGQGTQVTVSS | high polyreactivity
QVQLVESGGGLVQAGGSLRLSCAASGLIFVYYTMGWYRQAPGKERELVARISQSGGTTYYADSVKGRFTISRDNAKNTVYLQMNSLKPEDTAVYYCNARRVGVHYRYDYWGQGTQVTVSS | high polyreactivity
QVQLVESGAGLVQAGGSLRLSCAASGIILRYYALGWYRQAPGKERELVAAISSGGRTYYADSVKGRFTISRDNAKNPVNLLMNSLTPEDTEVYSCAADDTRGREEYDYWGQGTQVTGSS | high polyreactivity
QVHLVESGGGLVQAGGSLRLSCAASGRIFRKYAIGWYRQAPGKERELVAAISFSGTSTYYADSVKGRFTISRDNAKNTVYLQMNSLKPEDTAVYYCAAVYRQGTGYVDYDSWGQGTQVTVSS | low polyreactivity
QVQLVESGGGLVQAGGSLRLSCAASGFIFGDNAMGWYRQAPGKERELVAAINSGSRTSYADSVKGRFTISRDNAKNTVYLQMNSLKPEDTAVYYCAAESVSSGDNASRYDYWGQGTQVTVSS | low polyreactivity
QVQLVESGGGLVQAGGSLRLSCAASGSILYYYVMGWYRQAPGKERELVAAITSGGSTYYADSVKGRFTISRDNAKYTVYFQMIILKPEDTAVFYCAVGYVLTGVFQARFDYWGQGTQVNVSS | high polyreactivity
QVQLQESGGGLVQAGGSLRLSCAASGNISVTGFMGWYRQAPGKERELVASIGIGGTTYYADSVKGRFSISRDNAKNTVYVQMNSLKPEDTAVYYCAARYLYYAYSYWGQGTQVTVRS | low polyreactivity
QVQLVESGGGLVQAGGSLRLICAASGSTSPTNAMGWYRQAPGKEREFVAAIRGSGSSTRYADSVKGRFTISRDNAKNTVYLQMNSLKPEDTAVYYFDYWGQGTQVTVSS | low polyreactivity
QFQLVESGGGLVQAGGSLRLSCAASGSILESNVMGWYRQAPGKERELVASISSSGVSTYADSVKGRFTISRDNAKNTVYLQMNSLKPEDNAVYYCAADRWYWTYALYYWGQGTQVTVSS | low polyreactivity
QVQLVESGGGLVQAGGSLRLSCAASGITFRVYVMGGYRQAPGKERELVAAITSGTSTYYADSVKGRFTISRDNAKNTVYLQMNSLKPEDTAVYYCAADWDLFYAVVGFDFDYWGQGTQVTVSS | low polyreactivity
QVQLVESGGGLVQAGGSLRLSCAASRSIFLYYAMGWYRQAPGKERELVAAISYSGSGTYADSVKGRFTISRDNAKNTVYLQMNSLKPEDTAVYYCNVDYGSYSYDYWGQGTQVTVSS | low polyreactivity
QVQLVDSGGGLVQAGGSLRLSCAASGLTFKRYAMGWYRQAPGKERQLVASITGNGGSSYYADSVKGRFTISRDNAKNTVYLQMNSLKPEDTAVYYCNARRYVRTSQQPLYDYWGQGTQVTVSS | high polyreactivity
QVQLVESGGGLVQAGGSLRLSCAASGSPFPYVMVWYRQAPGKERELVAAISQRTGSTYYADSVKGRFTISRDNAKNTVYLQMNSLKPEDTAVYYCAKPGYLRPSRYDYWGQGTQVTVSS | high polyreactivity
QVQLVESGGGLVQAGGSLRLSCAASGSIFWFNAMGWYRQAPGKERELVAAITITGGSTYYADSVKGRFTISRDNAKNTVYLQMNSLKPEDTAVYYCAAGTGSRDDYWGQGTQVTVSS | high polyreactivity
QVQLQESGGGLVQAGGSLRLSCAASGSIYDGFNMGWYRQAPGKEREFVAAISYGASTYYADSVKGRFTVSRDNAKNSVYLQMNSLKPEDTAVYYCAVYDELYHVLVYWGRGTQVTVSS | low polyreactivity
QVQLVESGGGLVQAGGSLRLSCAASGSIFYYNPMGWYRQAPWKERELVAAITGSGGSTYYADSVKGRFTISRDNAKNTVYLQMNSLKPEDTAVYYCAADYSLYGWWFRNDYWGQGTQVTVSS | low polyreactivity
QVQLVESGGGLVQAGGSLRLSCAASGRISGGYAMGWYRQAPGKERELVAVISSGGRTYYADSVKGRFTISRDNAKNTVDLHMNSLKPEVTGVYYCNAYTWGIVDNYDYWGQGTQVTVSS | low polyreactivity
QVQLVDSGGGLVQAGGSLRLSCAASGNIFWENTMGSYRQAPGKERELVASISNTGTTNYADSVKGRFTISRDNAKNTVYLQMNSLKPEDTAVYDCNTDLWIDTASPAPNDDDYWGQGTQVTVSS | low polyreactivity
QVQLVESGGGLVQAGGSLRLSCAASGLIFVVYVMGWYRQAPGKERELVAAISGSGDSTYYADSVKGRFTISRDNAKNTVYLQMNSLKPEDTAVYYCNARSISRKKGYPPQRSDGYWGQGTQVTVSS | high polyreactivity
QVQLVESGGGLVQAGGSLRLSCAASGRIFKTNAMGWYRQAPGKERELVAGINSSDGSTYYADSVKGRFTISRDIEKNTVYLQMNSLKPEDTAVYYCAAVRYYWGQGTQVTVSS | low polyreactivity
QVQLVESGGGLVQAGGSLRLSSAASGSIFFRNAMGWYRKAPGKERELVAAISRSGGNTYYADSVKGRFTISRDNAKNTVYLQMNSLKPEDTAVYYCAKYRTLYWYDYWGQGTQVTVSS | high polyreactivity
EVQLVESGGGLVQAGGSLRLSCAASGFIFGYNAMGWYRQAPGKERDLVAAISWSGGSTYYADSVKGRYTISRDNAKNTVYLQMNSLKPEDTAVYYCNRGYTAQVFTEFDYWGQGTLVTVSS | low polyreactivity

Sequence | polyreactivity (PSR sort gate)
QVQLVESGGGLVQGGGSLRLSCAASGLILRKYAMGWYRQAPGKEREFVAAITQTGSRTYYADSVKGRFTISRDNAKNTVYLQMNSLKPEDTAVYYCNAVNYRSSRDSGYWGQGTQVTVSS | high polyreactivity
QVQLVESGGGLVQAGGSLRLSCAASGSIFWFNAMGWYRQAPGKEREFVASISRSGGTTYYADSVKGRFTISRDTAKNTVYLQMYSLKPEDTAVYYCNARAYGNGLGTGYFGKHRYDYWGQGTQVTVSS | low polyreactivity
QVQLVESGGGLVQAGGSLRLSCAASGSIFNTYAMGWYRQAPGKEREFVASISRSGGSTRYADSVKGRFTISRDNAKNTVYLQMNSLIPEDTAVYYCAASWLGASGIRYDYWGQGTQVTVSS | high polyreactivity
QDQLVESGGGLVQAGGSLRLSCAASGLIFDSYAMGWYRQAPGKERELVAAITYTGGSTYYADSVKGRFTISRDNAKNTVYLQMNSLKPEDTAVYYCAADSPGPWRYDYWGQGTQVTVSS | high polyreactivity
QVQLVESGGGLVQAGGSLRLSFAASGRTFGGYTMGWYRQAPGKERELVAAITWNGGRTYYADSVKGRFTISRDNAKNTVYLQMNILKPEDTAVYFCAVRIRLRRARLSYDYWGQGTQVTVSS | high polyreactivity
QVQLVESGGGLVQAGGSLRLSCAASGRNIQGYAMGWYRQAPGKESELVAAITLSGGSTYYADSVKGRFTISRDNAKNTVYLQMNSLKPEVTAVYYCNAYYPDEPSLYDYWGQGTQVTVSS | low polyreactivity
QVHLVESGGGLVQAGGSLRLSCAASGFTLRHNTIGGYRQSPGKERELVAAISIGGRTYYADSVKARFTISRDNAKNTGYLQMNSLKPEDTAVYYCGKLDRGQSPRYDFWGQGTQVSVSS | high polyreactivity
QVQLVESGGGLVQAGGSLRLSCAASGSTFYYYTMGWSRQAPGKERELVAAITYSGGSTRYADSVKGRFTISRDNAKNTVYLQMNSLKPEDTAVYYCAAELTEWTNGFDYWGQGTQVTVSS | high polyreactivity
QVQLVESGGGLVQAGGSLRLICAASGSTFLGYAMGWYRQAPGKERELVAAISSGGGTYADSVKGRFTISRDNAKNSVYLQMNSLKPEDTAVYYCNADYSTPYRMDYWGQGTQVTVSS | low polyreactivity
QVQLVESGGGLVQAGGSLRLSCAASGRTFVWNAMGWYRQAPGKERELVAAITSGGSTNYADSVKGRFTISRDNAKNTVYLQMNSLKPEDTAVYYCAADWQYSPRMDYWGQGTQVTVSS | low polyreactivity
QVQLVESGGGLVQSGGSLRLSCAASGYIVRNAMGWYRQAPVKERELVAAITWSGGSTYYADSVKGRFTISRDNAKNTVYLQMNSLKPEDTAVYYCNARRNVRQTFGYEYWGQGTQVTVSS | high polyreactivity
QVQLVESGGGLVQAGGSLRLSCAASGFIYRDYVMGWYRQAPEKERELVAAISYRGGSTNYADSVKGRFTISRDNAMNTVFLQMNSLKPEDTSVYYCAADQVHKREYEYWGQGTQVTVSS | low polyreactivity
QVQLVESGGGLVQAGGSLRLSCAASGRIFSAYAMGWYRQAPGKEREFVAAISARGGSTNYADSVKGRFTISRDNAKNTVYLQMNSLNPEDTAVYYCNDRYVQWYWIAKVIHIDNDYWGQGTQVTVSS | low polyreactivity
QVQLVESGGGLVQAGGSLRLSCAASGSIFYVNAMGWSRQAPGKERELVAAITSGVSTNYADSVKGSFTISRDNAKNTVYLQMNSLKREDTAVYYSAADYTYKQLHWVIEDYWGQGTQVTVSS | low polyreactivity
QVQLVESGGGLVQAGGSLRLSCASSGRTFYRNAMGWYRQAPGKERELVAAIRGSGSSTYYADSVKGRFTISRDNAKNSVYLQMKSLKQEDTAVYYCAADYINYNGYARYYFWGQGTQVTVSS | high polyreactivity
QVQLVESGGGLVQAGGSLRLSCAASGIIFYENAMGWYRQAPGKERELVAAIDGDDGGTDYADSVKGRFTISRDNAKNTVYLQMNSLKPEDTAVYYCAADFGAETGYYYWGQGTQVTVSS | low polyreactivity
QVQLVESGGGLVQAGGSLRLSCAASGRIIYNAMGWYRQAPGKERELVAAITSNGCSTYYADSVKGLFTISRDTAKNTVYLQMNSLKPEDTAVYYCARDVNSVPSEVKYDYWGQGTQVNVSS | low polyreactivity
QVQLQESGGGLVQAGGSLLSCAASGTISYYREMGWYRQAPGKERELVAGIGVGTITYYADSVKGRFTISRDNAKNTVYLQMNSLKPEDTAVYYCAALIDGNDSHAYWGQGTQVTVSS | low polyreactivity
QVQLVESGGGLVQAGGSLRLSCAASGSIFVLYTIGWYRQAPGKERELVGAISYSGGSTNYADSVKGRFTISRDNAKNTVYLQMNSLKPEDTSVYYCADRASKGHKYWGQGTQVTVSS | high polyreactivity
QVQLVESGGGLVQAGGSLRISCAASGSIFVYYGMGWYRQAPGKERELVAAISSGGSTHYADSVKGRFTISRDNAKNTVYLQMNSLKPEDTAVYYCAAERFFWLRSYPRYYYWGQGTQVTVSS | low polyreactivity
QVQLVESGGGLVQAGGSLRLSCAASGRIFSEYAMGWYRQAPGKERELVAAITRRGGSTYYADSVKGRFTISRDNAKNTVYLQMNSLKPEDTAVYYCNALLTGGYQDSYPDDYWGQGTQVTVSS | high polyreactivity
